Laboratory results taken from patent US9176064B2, “Bisubstrate fluorescent probes for protein kinase CK2” (University of Tartu, priority 2012, dated 2015).
Where a SMILES comes first, the peptide text is derived from it. [ ]: non-standard residue; d: D form. The star is where a group is joined. X1 = O=C(CCCCCCCn1cnc2c(Br)c(Br)c(Br)c(Br)c21)*

How the values were obtained:
Experiment in all cases: Kinase panel residual activity
Format in all cases: biochemical
Conditions in all cases: compound at 1 micromolar
LKB1 = target: T1, LKB1 (Homo sapiens, UniProt Q15831)
T1 sequence (Q15831 1-433): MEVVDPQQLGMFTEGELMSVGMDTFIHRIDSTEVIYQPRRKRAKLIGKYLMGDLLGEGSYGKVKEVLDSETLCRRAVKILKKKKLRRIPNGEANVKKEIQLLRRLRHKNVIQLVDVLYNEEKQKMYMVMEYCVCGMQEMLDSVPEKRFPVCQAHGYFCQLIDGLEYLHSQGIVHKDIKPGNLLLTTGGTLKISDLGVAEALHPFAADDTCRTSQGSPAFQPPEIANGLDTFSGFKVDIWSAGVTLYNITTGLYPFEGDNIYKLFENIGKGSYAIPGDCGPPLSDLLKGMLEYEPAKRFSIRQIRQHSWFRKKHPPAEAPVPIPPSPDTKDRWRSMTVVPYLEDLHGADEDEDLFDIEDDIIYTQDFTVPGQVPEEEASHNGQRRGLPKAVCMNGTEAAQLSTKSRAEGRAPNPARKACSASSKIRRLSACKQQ
T1 sequence (Q7RTN6 1-431 partner): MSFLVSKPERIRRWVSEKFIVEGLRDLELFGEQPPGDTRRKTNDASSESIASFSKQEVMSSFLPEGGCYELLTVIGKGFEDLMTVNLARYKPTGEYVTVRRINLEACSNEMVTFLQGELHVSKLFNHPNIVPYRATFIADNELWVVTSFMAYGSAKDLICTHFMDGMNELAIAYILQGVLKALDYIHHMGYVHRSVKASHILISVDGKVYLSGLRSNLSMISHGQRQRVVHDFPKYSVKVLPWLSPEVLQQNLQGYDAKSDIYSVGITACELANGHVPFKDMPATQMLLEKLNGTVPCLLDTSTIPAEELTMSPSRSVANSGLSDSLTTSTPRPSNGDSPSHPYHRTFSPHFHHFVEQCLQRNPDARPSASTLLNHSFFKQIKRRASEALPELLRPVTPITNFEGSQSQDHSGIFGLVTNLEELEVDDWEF
T1 sequence (Q9Y376 1-341 partner): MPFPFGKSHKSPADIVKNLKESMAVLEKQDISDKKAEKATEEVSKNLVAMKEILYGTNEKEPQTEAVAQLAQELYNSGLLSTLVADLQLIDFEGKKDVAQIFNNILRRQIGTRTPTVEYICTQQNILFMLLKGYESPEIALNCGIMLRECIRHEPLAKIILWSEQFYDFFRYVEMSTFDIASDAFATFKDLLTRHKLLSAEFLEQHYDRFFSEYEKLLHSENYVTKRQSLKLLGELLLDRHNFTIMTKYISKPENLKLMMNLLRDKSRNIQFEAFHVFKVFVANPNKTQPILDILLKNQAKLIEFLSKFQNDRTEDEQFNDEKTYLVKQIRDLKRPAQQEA

DYRK1A = DYRK1A (Homo sapiens, UniProt Q13627)
ABL = ABL (Homo sapiens, UniProt P00519)
Sequence of ABL (P00519 whole entry, species assumed): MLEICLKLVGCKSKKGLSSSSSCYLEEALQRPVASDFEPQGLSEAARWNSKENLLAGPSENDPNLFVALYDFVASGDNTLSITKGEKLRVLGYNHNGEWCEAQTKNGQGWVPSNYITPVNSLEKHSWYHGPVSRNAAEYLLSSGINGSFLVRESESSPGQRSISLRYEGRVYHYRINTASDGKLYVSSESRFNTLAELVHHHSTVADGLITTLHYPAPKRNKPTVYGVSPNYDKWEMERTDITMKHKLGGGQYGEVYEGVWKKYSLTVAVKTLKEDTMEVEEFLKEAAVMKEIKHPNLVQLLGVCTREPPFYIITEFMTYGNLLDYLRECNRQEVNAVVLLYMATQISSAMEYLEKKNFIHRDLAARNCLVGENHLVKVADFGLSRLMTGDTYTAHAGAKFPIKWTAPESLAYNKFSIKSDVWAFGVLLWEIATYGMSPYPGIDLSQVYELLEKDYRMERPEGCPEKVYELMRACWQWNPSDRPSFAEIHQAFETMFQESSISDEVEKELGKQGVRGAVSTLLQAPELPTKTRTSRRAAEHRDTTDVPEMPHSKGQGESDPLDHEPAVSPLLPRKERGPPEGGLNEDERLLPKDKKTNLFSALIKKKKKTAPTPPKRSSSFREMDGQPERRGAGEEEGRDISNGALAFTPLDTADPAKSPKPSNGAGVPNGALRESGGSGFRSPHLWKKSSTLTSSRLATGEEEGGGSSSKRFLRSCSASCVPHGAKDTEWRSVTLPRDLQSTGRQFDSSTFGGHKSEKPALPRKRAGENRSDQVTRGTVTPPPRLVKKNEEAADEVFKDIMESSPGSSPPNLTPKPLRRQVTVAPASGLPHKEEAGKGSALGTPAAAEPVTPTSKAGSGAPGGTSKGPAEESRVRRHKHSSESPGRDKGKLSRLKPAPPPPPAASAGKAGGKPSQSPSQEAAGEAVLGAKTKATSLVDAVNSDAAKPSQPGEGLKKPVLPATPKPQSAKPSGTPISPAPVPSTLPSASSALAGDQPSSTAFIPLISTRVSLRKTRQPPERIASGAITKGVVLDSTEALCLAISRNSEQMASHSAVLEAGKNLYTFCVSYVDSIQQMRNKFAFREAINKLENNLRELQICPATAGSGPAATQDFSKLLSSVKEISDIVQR

CK1γ2 = CK1γ2 (Homo sapiens, UniProt P78368)
Sequence of CK1γ2 (P78368 whole entry): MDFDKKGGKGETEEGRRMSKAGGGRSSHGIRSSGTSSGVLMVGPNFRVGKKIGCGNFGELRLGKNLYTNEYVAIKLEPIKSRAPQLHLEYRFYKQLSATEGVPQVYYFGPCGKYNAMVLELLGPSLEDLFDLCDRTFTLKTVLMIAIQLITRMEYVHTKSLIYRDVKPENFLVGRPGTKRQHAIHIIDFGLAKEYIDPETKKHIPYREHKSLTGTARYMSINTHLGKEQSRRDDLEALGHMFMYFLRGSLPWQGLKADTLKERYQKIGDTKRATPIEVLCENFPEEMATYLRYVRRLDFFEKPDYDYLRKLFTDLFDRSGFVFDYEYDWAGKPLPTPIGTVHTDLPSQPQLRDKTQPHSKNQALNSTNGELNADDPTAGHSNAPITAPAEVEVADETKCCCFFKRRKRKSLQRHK

PAK2 = PAK2 (Homo sapiens, UniProt Q13177)
Sequence of PAK2 (Q13177 whole entry, species assumed): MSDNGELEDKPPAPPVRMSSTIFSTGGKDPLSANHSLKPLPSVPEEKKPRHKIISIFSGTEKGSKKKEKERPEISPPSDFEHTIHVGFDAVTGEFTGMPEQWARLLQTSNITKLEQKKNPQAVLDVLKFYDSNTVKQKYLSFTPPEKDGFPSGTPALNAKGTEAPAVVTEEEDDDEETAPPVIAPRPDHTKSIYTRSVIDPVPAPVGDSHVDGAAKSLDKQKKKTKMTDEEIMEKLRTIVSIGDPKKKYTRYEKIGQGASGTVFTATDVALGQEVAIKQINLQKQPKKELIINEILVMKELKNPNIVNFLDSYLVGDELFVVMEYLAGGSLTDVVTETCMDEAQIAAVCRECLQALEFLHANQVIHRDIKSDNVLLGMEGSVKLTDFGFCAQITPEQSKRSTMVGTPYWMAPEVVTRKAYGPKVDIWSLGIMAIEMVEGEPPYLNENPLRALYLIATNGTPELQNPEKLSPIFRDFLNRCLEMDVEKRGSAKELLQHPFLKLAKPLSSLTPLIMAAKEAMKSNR

CK1δ = CK1δ (Homo sapiens, UniProt P48730)
Sequence of CK1δ (P48730 whole entry): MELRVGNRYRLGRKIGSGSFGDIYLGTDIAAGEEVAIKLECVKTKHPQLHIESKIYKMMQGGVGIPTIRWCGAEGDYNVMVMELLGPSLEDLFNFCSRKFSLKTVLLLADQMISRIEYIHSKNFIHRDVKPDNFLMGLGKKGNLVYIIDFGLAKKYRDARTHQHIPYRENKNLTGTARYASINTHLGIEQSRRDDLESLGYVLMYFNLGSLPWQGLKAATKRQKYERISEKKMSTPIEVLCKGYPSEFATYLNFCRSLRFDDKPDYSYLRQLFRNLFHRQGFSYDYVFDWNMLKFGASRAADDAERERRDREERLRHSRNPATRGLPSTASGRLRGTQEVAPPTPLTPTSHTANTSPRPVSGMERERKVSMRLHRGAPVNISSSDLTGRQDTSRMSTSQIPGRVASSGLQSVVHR

MST2 = target: T2, MST2 (Homo sapiens, UniProt Q13188)
T2 sequence (Q13188 1-491): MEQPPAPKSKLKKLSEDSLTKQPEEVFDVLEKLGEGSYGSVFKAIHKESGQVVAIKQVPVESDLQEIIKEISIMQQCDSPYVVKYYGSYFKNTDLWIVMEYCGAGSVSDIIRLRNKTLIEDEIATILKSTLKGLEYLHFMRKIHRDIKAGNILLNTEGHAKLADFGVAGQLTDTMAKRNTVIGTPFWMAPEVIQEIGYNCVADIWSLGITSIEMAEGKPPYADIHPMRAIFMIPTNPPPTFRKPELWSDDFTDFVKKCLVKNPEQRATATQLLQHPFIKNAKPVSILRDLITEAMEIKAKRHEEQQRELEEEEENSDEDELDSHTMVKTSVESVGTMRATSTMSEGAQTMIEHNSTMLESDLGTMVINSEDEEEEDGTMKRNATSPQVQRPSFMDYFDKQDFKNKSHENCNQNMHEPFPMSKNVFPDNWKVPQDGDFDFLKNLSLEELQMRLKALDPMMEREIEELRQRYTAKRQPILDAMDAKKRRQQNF

Aurora B = Aurora B (Homo sapiens, UniProt Q96GD4)
Sequence of Aurora B (Q96GD4 whole entry): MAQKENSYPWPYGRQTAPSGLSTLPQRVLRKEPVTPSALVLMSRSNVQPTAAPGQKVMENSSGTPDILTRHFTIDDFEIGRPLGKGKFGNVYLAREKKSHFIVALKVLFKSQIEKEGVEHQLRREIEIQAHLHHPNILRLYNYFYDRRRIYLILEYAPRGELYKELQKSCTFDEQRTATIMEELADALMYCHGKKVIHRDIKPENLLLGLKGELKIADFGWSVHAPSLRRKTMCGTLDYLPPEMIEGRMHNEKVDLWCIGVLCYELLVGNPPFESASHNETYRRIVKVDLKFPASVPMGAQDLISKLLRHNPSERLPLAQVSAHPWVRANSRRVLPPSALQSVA

EPH-B4 = target: T3, EPH-B4 (Homo sapiens, UniProt P54760)
T3 sequence (P54760 16-987): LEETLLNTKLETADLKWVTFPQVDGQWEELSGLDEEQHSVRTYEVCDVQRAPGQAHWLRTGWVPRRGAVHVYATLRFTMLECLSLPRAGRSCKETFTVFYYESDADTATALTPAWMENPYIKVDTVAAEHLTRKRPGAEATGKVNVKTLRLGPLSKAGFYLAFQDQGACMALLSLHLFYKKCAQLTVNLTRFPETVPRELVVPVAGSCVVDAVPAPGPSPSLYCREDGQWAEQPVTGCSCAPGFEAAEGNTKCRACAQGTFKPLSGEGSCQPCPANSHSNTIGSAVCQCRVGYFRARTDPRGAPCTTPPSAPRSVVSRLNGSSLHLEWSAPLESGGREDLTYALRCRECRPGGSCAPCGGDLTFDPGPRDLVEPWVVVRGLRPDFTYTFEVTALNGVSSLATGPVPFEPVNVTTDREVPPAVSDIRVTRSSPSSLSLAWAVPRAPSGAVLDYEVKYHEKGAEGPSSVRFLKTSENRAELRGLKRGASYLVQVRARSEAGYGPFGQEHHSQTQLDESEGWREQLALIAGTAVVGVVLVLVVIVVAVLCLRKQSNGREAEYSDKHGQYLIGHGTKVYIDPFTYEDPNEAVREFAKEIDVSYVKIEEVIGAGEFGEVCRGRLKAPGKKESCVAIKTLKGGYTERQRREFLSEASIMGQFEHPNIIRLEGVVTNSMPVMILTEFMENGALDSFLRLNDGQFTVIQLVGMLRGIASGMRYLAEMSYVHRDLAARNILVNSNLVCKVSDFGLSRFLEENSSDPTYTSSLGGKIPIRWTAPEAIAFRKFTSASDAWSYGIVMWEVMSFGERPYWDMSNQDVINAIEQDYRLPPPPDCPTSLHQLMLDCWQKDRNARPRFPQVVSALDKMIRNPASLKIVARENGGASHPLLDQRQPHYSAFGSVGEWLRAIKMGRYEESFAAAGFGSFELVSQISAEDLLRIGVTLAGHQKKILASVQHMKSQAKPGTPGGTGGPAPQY

Question: With `NCCCC[C@H](NC(=O)[C@H](CC(=O)O)NC(=O)[C@H](CC(=O)O)NC(=O)[C@H](CC(=O)O)NC(=O)[C@H](CC(=O)O)NC(=O)[C@H](CC(=O)O)NC(=O)[C@@H](CC(=O)O)NC(=O)CCCCCCCn1cnc2c(Br)c(Br)c(Br)c(Br)c21)C(=O)O` [TBBI-OcA-(D-Asp)-(L-Asp)5-(L-Lys)-OH] (X1-[dD]DDDDDK-OH) as the compound, how does the remaining activity at 1 µM (LKB1) read?
Answer: The remaining activity at 1 µM was 96%.

Question: And the remaining activity at 1 µM (DYRK1A)?
Answer: The remaining activity at 1 µM was 36%.

Question: And the remaining activity at 1 µM (ABL)?
Answer: Its remaining activity at 1 µM is 101%.

Question: And the remaining activity at 1 µM (CK1γ2)?
Answer: The remaining activity at 1 µM was 71%.

Question: And the remaining activity at 1 µM (PAK2)?
Answer: Its remaining activity at 1 µM is 102%.

Question: And the remaining activity at 1 µM (CK1δ)?
Answer: Its remaining activity at 1 µM is 49%.

Question: What about the remaining activity at 1 µM (MST2) of the same compound?
Answer: Its remaining activity at 1 µM is 99%.

Question: What about the remaining activity at 1 µM (Aurora B) of the same compound?
Answer: The remaining activity at 1 µM was 100%.

Question: And the remaining activity at 1 µM (EPH-B4)?
Answer: Its remaining activity at 1 µM is 104%.
